Data: publication PMC10613268, “Shade-induced RTFL/DVL peptides negatively regulate the shade response by directly interacting with BSKs in Arabidopsis” (Nature Communications, 2023)

B1: Sumo-His-RTFL18 (peptide, UniProt Q6X5V0 1-51, looked up)
chain: MEMKRVMMSSAERSKEKKRSISRRLGKYMKEQKGRIYIIRRCMVMLLCSHD
notes: RTFL18 (DVL1), Arabidopsis; full-length coding region cloned into a pET-SUMO vector; source: E. coli BL21 (DB3); not shown: SUMO, N-terminal, kept; His, N-terminal, kept
B2: His-RTFL18 WT (peptide, UniProt Q6X5V0 1-51, looked up)
chain: B1 chain
notes: RTFL18 (DVL1), Arabidopsis; full-length coding region cloned into a pET-SUMO vector; also called 6His-RTFL18 WT (wild type); source: E. coli BL21 (DB3), purified; not shown: His6, N-terminal, kept

Columns and labels:
Conditions in all cases: both partners purified
GST-BSK6 = target: T1, GST-BSK6 (Arabidopsis, UniProt Q9M324 1-490); experiment: pull-down; in vitro (Fig. 4e): Sumo-His-RTFL18 on Ni-NTA beads, then GST or GST-BSK3/BSK6, 4 °C 2 h, 1 × PBS with 1 mM DTT; blot anti-GST, anti-His
T1 construct: BSK6, Arabidopsis; full-length coding region cloned into pGEX4-T-1; source: E. coli BL21 (DB3); not shown: GST, N-terminal, kept
T1 sequence (Q9M324 whole entry): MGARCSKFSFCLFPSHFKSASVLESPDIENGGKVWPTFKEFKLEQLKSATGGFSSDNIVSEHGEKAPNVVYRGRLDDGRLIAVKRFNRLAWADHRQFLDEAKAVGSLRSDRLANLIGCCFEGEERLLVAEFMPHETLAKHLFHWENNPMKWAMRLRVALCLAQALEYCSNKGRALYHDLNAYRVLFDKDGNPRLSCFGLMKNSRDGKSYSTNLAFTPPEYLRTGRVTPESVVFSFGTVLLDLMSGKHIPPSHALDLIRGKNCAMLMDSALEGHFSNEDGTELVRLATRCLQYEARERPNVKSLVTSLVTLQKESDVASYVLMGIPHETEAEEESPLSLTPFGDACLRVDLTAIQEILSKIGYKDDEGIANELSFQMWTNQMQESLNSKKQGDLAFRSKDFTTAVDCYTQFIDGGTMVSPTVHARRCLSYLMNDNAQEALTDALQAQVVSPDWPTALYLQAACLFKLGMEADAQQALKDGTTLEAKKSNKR

GST-BSK3 WT [1] = target: T2, GST-BSK3 WT (Arabidopsis, UniProt Q8W4L3 1-489); experiment: as above
T2 construct: BSK3, Arabidopsis; full-length coding region cloned into pGEX4-T-1; source: E. coli BL21 (DB3), purified; not shown: GST, N-terminal, kept
T2 sequence (Q8W4L3 whole entry): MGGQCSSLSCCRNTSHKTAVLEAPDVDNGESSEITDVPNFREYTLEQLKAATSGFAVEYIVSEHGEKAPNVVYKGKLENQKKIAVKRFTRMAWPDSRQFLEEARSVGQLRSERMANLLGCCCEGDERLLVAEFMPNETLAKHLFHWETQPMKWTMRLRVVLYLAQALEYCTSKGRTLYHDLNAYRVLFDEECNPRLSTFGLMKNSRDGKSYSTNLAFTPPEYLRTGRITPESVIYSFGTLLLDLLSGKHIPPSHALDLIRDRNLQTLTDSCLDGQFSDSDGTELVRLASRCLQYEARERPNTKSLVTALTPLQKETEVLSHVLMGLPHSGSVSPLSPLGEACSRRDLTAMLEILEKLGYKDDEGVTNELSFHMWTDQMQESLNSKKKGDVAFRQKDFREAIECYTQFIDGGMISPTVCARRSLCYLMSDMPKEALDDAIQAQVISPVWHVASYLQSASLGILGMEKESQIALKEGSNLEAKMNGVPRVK

GST-BSK3 WT [2] = target: T2, GST-BSK3 WT; experiment: pull-down; in vitro (Fig. 4l): purified GST-BSK3 WT on glutathione beads, then His-RTFL18 (WT, M1, M2), 4 °C 2 h, 1 × PBS with 1 mM DTT; blot anti-His, anti-GST

Binder	binding result (GST-BSK6)	binding result (GST-BSK3 WT [1])	binding result (GST-BSK3 WT [2])
B1	binds	binds	–
B2	–	–	binds
